Test results reported in IntAct's records for PubMed 25910212.

B1: Beta-crystallin A4 (Homo sapiens), P53673 (parent)
chain: MTLQCTKSAGPWKMVVWDEDGFQGRRHEFTAECPSVLELGFETVRSLKVLSGAWVGFEHAGFQGQQYILERGEYPSWDAWGGNTAYPAERLTSFRPAACANHRDSRLTIFEQENFLGKKGELSDDYPSLQAMGWEGNEVGSFHVHSGAWVCSQFPGYRGFQYVLECDHHSGDYKHFREWGSHAPTFQVQSIRRIQQ

Variants of: B1
Details: with ikzf3_human IKZF3, Q9UKT9
Chain of ikzf3_human IKZF3, Q9UKT9 (Q9UKT9 whole entry): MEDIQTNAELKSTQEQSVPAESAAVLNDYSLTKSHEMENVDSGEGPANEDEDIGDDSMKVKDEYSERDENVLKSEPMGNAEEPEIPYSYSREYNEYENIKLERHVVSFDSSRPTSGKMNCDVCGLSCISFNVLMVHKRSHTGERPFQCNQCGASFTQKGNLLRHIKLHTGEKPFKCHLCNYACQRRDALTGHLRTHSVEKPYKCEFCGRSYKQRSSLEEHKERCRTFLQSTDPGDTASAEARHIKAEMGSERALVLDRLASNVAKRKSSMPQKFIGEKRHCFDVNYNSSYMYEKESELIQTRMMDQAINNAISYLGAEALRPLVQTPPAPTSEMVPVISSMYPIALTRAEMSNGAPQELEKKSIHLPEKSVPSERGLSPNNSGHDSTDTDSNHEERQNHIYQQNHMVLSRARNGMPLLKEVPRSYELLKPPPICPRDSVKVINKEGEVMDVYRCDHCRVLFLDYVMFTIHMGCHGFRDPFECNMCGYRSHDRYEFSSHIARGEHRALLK

Row | effect of a mutation on the interaction | Variant
1 | disrupting interaction strength | MTLQCTKSAGPWKMVVWDEDGFQGRRHEFTAECPSVLELGFETVRSLKVLSGAWVGFEHAGFQGQQYILERGEYPSWDAWGGNTAYPAERLTSSRPAACANHRDSRLTIFEQENFLGKKGELSDDYPSLQAMGWEGNEVGSFHVHSGAWVCSQFPGYRGFQYVLECDHHSGDYKHFREWGSHAPTFQVQSIRRIQQ
2 | disrupting interaction strength | MTLQCTKSAGPWKMVVWDEDGFQGRRHEFTAECPSVLELGFETVRSLKVLSGAWVGFEHAGFQGQQYIPERGEYPSWDAWGGNTAYPAERLTSFRPAACANHRDSRLTIFEQENFLGKKGELSDDYPSLQAMGWEGNEVGSFHVHSGAWVCSQFPGYRGFQYVLECDHHSGDYKHFREWGSHAPTFQVQSIRRIQQ

Variants of: B1
Details: with trip6_human TRIP6, Q15654
Chain of trip6_human TRIP6, Q15654 (Q15654 whole entry): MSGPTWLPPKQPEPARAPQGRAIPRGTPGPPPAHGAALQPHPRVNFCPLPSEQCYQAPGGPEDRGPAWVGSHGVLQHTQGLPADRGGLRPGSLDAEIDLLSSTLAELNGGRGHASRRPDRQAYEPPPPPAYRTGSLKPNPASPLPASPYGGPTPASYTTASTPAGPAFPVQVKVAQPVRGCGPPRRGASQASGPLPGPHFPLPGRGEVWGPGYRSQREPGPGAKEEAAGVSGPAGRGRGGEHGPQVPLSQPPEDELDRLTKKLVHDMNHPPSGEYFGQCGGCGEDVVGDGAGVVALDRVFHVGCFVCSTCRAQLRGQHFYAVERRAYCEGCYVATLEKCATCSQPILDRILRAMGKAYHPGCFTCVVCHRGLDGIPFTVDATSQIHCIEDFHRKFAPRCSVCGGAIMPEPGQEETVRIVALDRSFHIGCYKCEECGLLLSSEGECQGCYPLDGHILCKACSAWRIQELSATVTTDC

Row | effect of a mutation on the interaction | Variant
3 | disrupting interaction strength | MTLQCTKSAGPWKMVVWDEDGFQGRRHEFTAECPSVLELGFETVRSLKVLSGAWVGFEHAGFQGQQYILERGEYPSWDAWGGNTAYPAERLTSSRPAACANHRDSRLTIFEQENFLGKKGELSDDYPSLQAMGWEGNEVGSFHVHSGAWVCSQFPGYRGFQYVLECDHHSGDYKHFREWGSHAPTFQVQSIRRIQQ
4 | disrupting interaction strength | MTLQCTKSAGPWKMVVWDEDGFQGRRHEFTAECPSVLELGFETVRSLKVLSGAWVGFEHAGFQGQQYIPERGEYPSWDAWGGNTAYPAERLTSFRPAACANHRDSRLTIFEQENFLGKKGELSDDYPSLQAMGWEGNEVGSFHVHSGAWVCSQFPGYRGFQYVLECDHHSGDYKHFREWGSHAPTFQVQSIRRIQQ

Variants of: B1
Details: with gli1_human GLI1, P08151
Chain of gli1_human GLI1, P08151 (P08151 whole entry): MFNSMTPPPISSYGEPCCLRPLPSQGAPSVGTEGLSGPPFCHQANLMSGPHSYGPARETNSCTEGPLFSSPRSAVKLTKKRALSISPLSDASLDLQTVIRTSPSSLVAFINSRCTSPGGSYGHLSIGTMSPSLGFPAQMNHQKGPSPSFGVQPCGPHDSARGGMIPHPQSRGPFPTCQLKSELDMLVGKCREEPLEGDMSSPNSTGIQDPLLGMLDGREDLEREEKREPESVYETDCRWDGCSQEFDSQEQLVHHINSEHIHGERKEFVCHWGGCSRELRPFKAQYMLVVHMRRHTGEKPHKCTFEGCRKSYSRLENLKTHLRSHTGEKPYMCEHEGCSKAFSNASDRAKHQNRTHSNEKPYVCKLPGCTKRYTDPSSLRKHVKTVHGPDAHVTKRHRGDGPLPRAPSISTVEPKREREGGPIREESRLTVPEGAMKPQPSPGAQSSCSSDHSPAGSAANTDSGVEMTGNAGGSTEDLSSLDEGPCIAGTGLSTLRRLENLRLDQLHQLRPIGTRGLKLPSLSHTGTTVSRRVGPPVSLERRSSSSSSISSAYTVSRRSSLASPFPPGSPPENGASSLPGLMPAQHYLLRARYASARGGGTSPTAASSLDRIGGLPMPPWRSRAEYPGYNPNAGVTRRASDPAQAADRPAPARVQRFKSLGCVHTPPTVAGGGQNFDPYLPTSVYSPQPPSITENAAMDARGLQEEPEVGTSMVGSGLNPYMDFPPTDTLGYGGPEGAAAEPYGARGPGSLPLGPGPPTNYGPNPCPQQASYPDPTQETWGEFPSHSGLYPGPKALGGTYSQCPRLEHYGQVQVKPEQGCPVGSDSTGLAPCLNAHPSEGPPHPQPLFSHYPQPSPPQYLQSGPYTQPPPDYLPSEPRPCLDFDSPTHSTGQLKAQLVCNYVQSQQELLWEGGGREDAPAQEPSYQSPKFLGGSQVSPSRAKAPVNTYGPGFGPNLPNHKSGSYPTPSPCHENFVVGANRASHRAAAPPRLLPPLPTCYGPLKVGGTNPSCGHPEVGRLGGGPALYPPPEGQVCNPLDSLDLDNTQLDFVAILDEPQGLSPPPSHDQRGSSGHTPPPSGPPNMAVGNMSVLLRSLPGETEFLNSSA

Row | effect of a mutation on the interaction | Variant
5 | disrupting interaction strength | MTLQCTKSAGPWKMVVWDEDGFQGRRHEFTAECPSVLELGFETVRSLKVLSGAWVGFEHAGFQGQQYILERGEYPSWDAWGGNTAYPAERLTSSRPAACANHRDSRLTIFEQENFLGKKGELSDDYPSLQAMGWEGNEVGSFHVHSGAWVCSQFPGYRGFQYVLECDHHSGDYKHFREWGSHAPTFQVQSIRRIQQ
6 | disrupting interaction strength | MTLQCTKSAGPWKMVVWDEDGFQGRRHEFTAECPSVLELGFETVRSLKVLSGAWVGFEHAGFQGQQYIPERGEYPSWDAWGGNTAYPAERLTSFRPAACANHRDSRLTIFEQENFLGKKGELSDDYPSLQAMGWEGNEVGSFHVHSGAWVCSQFPGYRGFQYVLECDHHSGDYKHFREWGSHAPTFQVQSIRRIQQ

Variants of: B1
Details: with ccd33_human CCDC33, Q8N5R6
Chain of ccd33_human CCDC33, Q8N5R6 (Q8N5R6 whole entry): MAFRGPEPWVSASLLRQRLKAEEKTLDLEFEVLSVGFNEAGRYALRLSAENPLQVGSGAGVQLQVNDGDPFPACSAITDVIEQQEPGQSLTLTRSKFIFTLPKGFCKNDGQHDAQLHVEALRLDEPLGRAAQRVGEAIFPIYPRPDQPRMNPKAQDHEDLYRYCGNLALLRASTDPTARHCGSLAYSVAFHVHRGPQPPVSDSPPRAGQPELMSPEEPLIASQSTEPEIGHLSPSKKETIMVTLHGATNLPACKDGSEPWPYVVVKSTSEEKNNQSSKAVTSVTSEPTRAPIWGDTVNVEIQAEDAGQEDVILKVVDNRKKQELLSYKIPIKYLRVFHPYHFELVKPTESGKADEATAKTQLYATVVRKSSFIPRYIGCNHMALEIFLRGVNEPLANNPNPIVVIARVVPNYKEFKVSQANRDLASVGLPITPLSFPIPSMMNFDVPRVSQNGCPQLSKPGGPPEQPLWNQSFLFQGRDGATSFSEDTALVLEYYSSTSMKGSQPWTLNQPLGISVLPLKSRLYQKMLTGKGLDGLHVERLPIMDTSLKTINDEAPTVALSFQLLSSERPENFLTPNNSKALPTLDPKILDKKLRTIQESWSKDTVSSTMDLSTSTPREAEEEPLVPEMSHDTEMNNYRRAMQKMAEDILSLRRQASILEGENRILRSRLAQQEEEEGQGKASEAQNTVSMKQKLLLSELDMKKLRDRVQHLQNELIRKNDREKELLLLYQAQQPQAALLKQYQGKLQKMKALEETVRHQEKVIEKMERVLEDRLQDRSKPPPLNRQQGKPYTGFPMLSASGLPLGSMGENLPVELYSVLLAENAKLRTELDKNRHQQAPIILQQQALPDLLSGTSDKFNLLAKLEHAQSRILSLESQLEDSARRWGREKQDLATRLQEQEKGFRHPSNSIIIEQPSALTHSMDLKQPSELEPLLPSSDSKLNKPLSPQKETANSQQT

Row | effect of a mutation on the interaction | Variant
7 | disrupting interaction strength | MTLQCTKSAGPWKMVVWDEDGFQGRRHEFTAECPSVLELGFETVRSLKVLSGAWVGFEHAGFQGQQYILERGEYPSWDAWGGNTAYPAERLTSSRPAACANHRDSRLTIFEQENFLGKKGELSDDYPSLQAMGWEGNEVGSFHVHSGAWVCSQFPGYRGFQYVLECDHHSGDYKHFREWGSHAPTFQVQSIRRIQQ
8 | disrupting interaction strength | MTLQCTKSAGPWKMVVWDEDGFQGRRHEFTAECPSVLELGFETVRSLKVLSGAWVGFEHAGFQGQQYIPERGEYPSWDAWGGNTAYPAERLTSFRPAACANHRDSRLTIFEQENFLGKKGELSDDYPSLQAMGWEGNEVGSFHVHSGAWVCSQFPGYRGFQYVLECDHHSGDYKHFREWGSHAPTFQVQSIRRIQQ
